Assay results from paper PMC5675522 (Angiogenesis, 2017).

How the values were obtained:
[1] = molecular target: T1, recombinant human SFRP2 (secreted frizzled-related protein 2) with C-terminal hexahistidine tag (human, UniProt Q96HF1 25-295); assay: ELISA
T1 sequence (looked up): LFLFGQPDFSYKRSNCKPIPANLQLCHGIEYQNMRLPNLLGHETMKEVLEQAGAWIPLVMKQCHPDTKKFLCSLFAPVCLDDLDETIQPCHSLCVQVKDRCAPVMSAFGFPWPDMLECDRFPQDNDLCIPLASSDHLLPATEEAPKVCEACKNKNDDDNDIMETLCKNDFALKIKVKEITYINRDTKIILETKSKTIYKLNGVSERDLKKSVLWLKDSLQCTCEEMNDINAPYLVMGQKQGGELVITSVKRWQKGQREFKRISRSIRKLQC

recombinant human Wnt5a = molecular target: T2, recombinant human Wnt5a (human, UniProt P41221 62-380); assay: ELISA
T2 sequence (looked up): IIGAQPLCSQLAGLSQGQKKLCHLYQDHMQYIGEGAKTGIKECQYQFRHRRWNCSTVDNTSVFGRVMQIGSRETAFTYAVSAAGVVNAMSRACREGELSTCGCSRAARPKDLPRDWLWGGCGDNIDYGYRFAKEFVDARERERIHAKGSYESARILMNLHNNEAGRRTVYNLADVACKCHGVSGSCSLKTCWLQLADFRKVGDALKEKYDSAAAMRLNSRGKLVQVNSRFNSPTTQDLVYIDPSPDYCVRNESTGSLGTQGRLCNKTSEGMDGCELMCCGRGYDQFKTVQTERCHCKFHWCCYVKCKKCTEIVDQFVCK

B1: Frizzled-5 Fc Fusion protein (Fc fusion, human, UniProt Q13467 27-238, looked up)
chain: ASKAPVCQEITVPMCRGIGYNLTHMPNQFNHDTQDEAGLEVHQFWPLVEIQCSPDLRFFLCSMYTPICLPDYHKPLPPCRSVCERAKAGCSPLMRQYGFAWPERMSCDRLPVLGRDAEVLCMDYNRSEATTAPPRPFPAKPTLPGPPGAPASGGECPAGGPFVCKCREPFVPILKESHPLYNKVRTGQVPNCAVPCYQPSFSADERTFATFW
- EC50 [1]: 205 nM
- Kd [1]: 103 nM
- EC50 (recombinant human Wnt5a): 216 nM
- Kd (recombinant human Wnt5a): 108 nM
